Data taken from patent publication US20120165265A1, “Calcium Signaling Modulators Involving STIM and ORAI Proteins” (priority 2009, published 2012).

B1: Orai11-70: Orai1 fragment aa 1-70 (protein)
chain: MHPEPAPPPSRSSPELPPSGGSTTSGSRRSRRRSGDGEPPGAPPPPPSAVTYPDWIGQSYSEVMSLNEHS
modifications: left off: small tags and cut ends
B2: STIM1-DCAD: WT-STIM1 with the CAD deleted (protein)
chain: LSHSHSEKATGTSSGANSEESTAAEFCRIDKPLCHSEDEKLSFEAVRNIHKLMDDDANGDVDVEESDEFLREDLNYHDPTVKHSTFHGEDKLISVEDLWKAWKSSEVYNWTVDEVVQWLITYVELPQYEETFRKLQLSGHAMPRLAVTNTTMTGTVLKMTDRSHRQKLQLKALDTVLFGPPLLTRHNHLKDFMLVVSIVIGVGGCWFAYIQNRYSKEHMKKMMKDLEGLHRAEQSLHDLQERLHKAQEEHRTVEVEKVHLEKKLRDEINLAKQEAQRLKELREGTENERSRQKYAEEELEQVREALRKAEKELESHSSWSLVAALNIDPSWMGSTRPNPAHFIMTDDVDDMDEEIVSPLSMQSPSLQSSVRQRLTEPQHGLGSQRDLTHSDSESSLHMSDRQRVAPKPPQMSRAADEALNAMTSNGSHRLIEGVHPGSLVEKLPDSPALAKKALLALNHGLDKAHSLMELSPSAPPGGSPHLDSSRSHSPSSPDPDTPSPVGDSRALQASRNTRIPHLAGKKAVAEEDNGSIGEETDSSPGRKKFPLKIFKKPLKK
modifications: left off: large carriers
notes: WT-STIM1 with the CAD deleted

Assays:
CAD = target: T1, CAD (Homo sapiens, UniProt Q13586); test: Co-immunoprecipitation of Orai1 fragments with CAD in HEK 293T cells; type: binding; settings: YFP-tagged Orai1 fragment with Flag-myc-CAD in HEK 293T cells
T1 construct: For STIM1 342-448 (CAD); expressed in transfected cells; host or cells: HEK 293T
T1 sequence (Q13586 342-448): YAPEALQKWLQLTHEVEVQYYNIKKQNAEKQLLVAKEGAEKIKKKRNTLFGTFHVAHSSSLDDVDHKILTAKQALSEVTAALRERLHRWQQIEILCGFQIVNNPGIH
Description: Immunoprecipitation and Immunoblot Analysis. Transfected HEK 293T cells (12-24 h) were washed with PBS and lysed in 50 mM Tris-HCl pH 7.5, 150 mM NaCl, 1% Triton X-100, and protease inhibitors. Lysates were spun at 12,000 rpm for 10 min, and the supernatant was incubated with anti-Flag M2 agarose beads (Sigma), or anti-myc or -HA antibody followed by IgG agarose beads (Pierce). Lysates and immunoprecipitates were subjected to SDS-PAGE, probed with HRP-conjugated secondary antibody and detected by enhanced chemiluminescence (Pierce).
STIM1-CAD BINDS TO THE N- AND C-TERMINI OF ORAI1. To identify regions of Orai1 important for activation by CAD, we characterized the binding of CAD to Orai1 using two approaches. First we expressed fusions of NubG with the N-terminus, the II-III cytoplasmic loop and the C-terminus of Orai1 in yeast together with different CAD-Cub-LV constructs. […] Based on the level of b-gal activity, CAD appears to interact with the Orai1 C-terminus with a higher affinity than with the N-terminus. We next expressed fusions of YFP with the N-terminus, the II-III loop and the C-terminus of Orai1 in HEK 293T cells together with Flag-myc-CAD. […]

endogenous CRAC channels = test: NFAT-luciferase assay in HEK 293T (NFAT-Luc) cells; type: cell-based; settings: following treatment with TG+PMA
Description: NFAT-luciferase Assays. HEK 293T cells were co-transfected with the indicated constructs and an NFAT reporter gene (firefly luciferase gene C-terminal to 4×-NFAT site from the IL-2 gene). Cotransfection with the Renilla luciferase (pRLTK) gene driven by the TK promoter was used to control for cell number and transfection efficiency. After 12-18 h, cells were treated with a control DMSO solution (mock), PMA (1 μM), or PMA plus TG (1 μM) for 8 h. Assays were performed using the Dual Luciferase Reporter assay system (Promega). For each condition, luciferase activity was measured with 4 samples taken from duplicate wells using a 96-well automated luminometer (Turner Biosystems). Results are represented as the ratio of firefly to Renilla luciferase activity.
Identifying a Minimal Cytosolic Region of STIM1 that Opens the CRAC Channel. To identify the CRAC-activating domain of STIM1, we first tested a series of soluble cytosolic STIM1 fragments for their ability to activate an NFAT-dependent luciferase reporter gene (NFAT-luc). A series of constructs were generated by progressive truncation of the full-length cytosolic region of STIM1 (FIG. 2A; STIM1234-685; CT-STIM1) and were transiently expressed in a HEK 293T cell line containing NFAT-luc. […]

Orai1 [1] = target: T2, Orai1 (Homo sapiens, UniProt Q96D31); test: Puncta formation of STIM1 variants by confocal microscopy in HEK 293 cells; type: cell-based; settings: coexpressed with eGFP-Orai1, TG
T2 construct: expressed in transfected cells; host or cells: HEK 293
T2 sequence (Q96D31 whole entry): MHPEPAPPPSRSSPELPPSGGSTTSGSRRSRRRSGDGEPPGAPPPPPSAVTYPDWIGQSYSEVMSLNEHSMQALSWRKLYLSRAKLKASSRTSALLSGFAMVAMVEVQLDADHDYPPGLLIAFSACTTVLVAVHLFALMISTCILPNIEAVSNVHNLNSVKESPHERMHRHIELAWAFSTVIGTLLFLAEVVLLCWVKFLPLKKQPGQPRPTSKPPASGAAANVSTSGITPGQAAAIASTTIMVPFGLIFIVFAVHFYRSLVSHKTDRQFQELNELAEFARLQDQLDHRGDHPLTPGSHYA
Description: Confocal Microscopy. 6 h after transfection, HEK 293 cells were plated onto sterilized coverslips coated with poly-D-lysine and maintained in complete DMEM for an additional 12-18 h before imaging in Ringer's solution containing (in mM): 155 NaCl, 4.5 KCl, 2 CaCl2, 1 MgCl2, 10 D-glucose, and 5 Na-Hepes, pH 7.4. To deplete stores, cells were treated with 1 μM TG in Ca2+-free Ringer's (prepared by substituting 2 mM MgCl2 and 1 mM EGTA for CaCl2) for 10 min. eGFP and mCherry were excited simultaneously at 488 and 594 nm, respectively, on a Leica SP2 AOBS inverted confocal microscope equipped with a PL APO 100×/NA 1.4 oil immersion objective. Fluorescence emissions were collected at 615-840 nm (mCherry) and 510-570 nm (eGFP). All experiments were performed at 22-25° C.
Quantitation of STIM1 and Orai1 Recruitment into Puncta. Colocalization of eGFP-Orai1 and mCh-STIM1 variants was analyzed from background-corrected confocal image pairs acquired before and after store depletion. Puncta have two defining characteristics: (1) because they are sites of accumulation, STIM1 and Orai1 fluorescence intensities in puncta are greater than the respective mean intensities measured across the entire cell, and (2) because STIM1 and Orai1 co-localize in puncta, their fluorescence covariance is high. […]

Orai1 [2] = target: T2, Orai1; test: Store-operated Ca2+ entry by STIM1 variants, single cell Ca2+ imaging; type: cell-based; settings: coexpressed with eGFP-Orai1, TG
Description: For FIG. 7, cells were loaded as above with 2 μM fura-2/AM for 25 min. Ratiometric Ca2+ imaging was performed with 350 and 380 nm excitation in 2 mM Ca2+ Ringer's solution on an Axiovert 35 inverted microscope using a VideoProbe imaging system as described (Bautista et al., 2002). mCherry-positive cells were identified using a 540±12 nm excitation and a 580LP emission filter (Chroma).
The Role of CAD in Orai1 Binding and Activation by STIM1. A key question is whether CAD is responsible for the clustering and activation of CRAC channels by full-length STIM1 following store depletion. To address this, we measured the ability of mCherry-tagged STIM1 variants containing CAD mutations to co-cluster with eGFP-Orai1 and activate Ca^2+ entry in response to TG (FIG. 7). STIM1-Orai1 colocalization was quantified as the fraction of total STIM1 and Orai1 fluorescence that was recruited to regions of high fluorescence covariance (FIG. 13), while Ca^2+ influx was measured with single cell Ca^2+ imaging. For each set of experiments we measured mCherry and GFP fluorescence to confirm that differences in the activity of the various STIM1 constructs were not due to differences in expression level (FIG. 14).

| Molecule | co-immunoprecipitation with CAD (CAD) | NFAT activation by endogenous channels (endogenous CRAC channels) | puncta formation with Orai1 after store depletion (Orai1 [1]) | Ca2+ entry (SOCE) after store depletion (Orai1 [2]) |
| --- | --- | --- | --- | --- |
| B1 | not |  |  |  |
| B2 |  | inhibited NFAT activation | failed to form puncta | failed to form puncta, cluster Orai1 or activate Ca^2+ entry |
